In patent US20080058263A1 (published 2008):

Columns and labels:
Experiment in all cases: receptor-Fc IP
VEGFR-2-Fc = molecular target: T1, VEGFR-2-Fc (UniProt P35968 20-322)
T1 construct: domain: first 3 Ig domains; conditioned supernatant of 293T cells; also called VEGFR-2-Fc fusion protein; not shown: Fc fragment of the pIg vector
Method in brief: (§1)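 fusion protein at 400 ng/ml in an IP mix (PBS, 1.5% BSA, 0.06% Tween 20, 3 μg/ml heparin) was combined with sample supernatant at a 1:2 ratio. Bound ligand captured by immunoprecipitation with pentahistidine antibody.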

VEGFR-1-Fc = molecular target: T2, VEGFR-1-Fc (UniProt P17948 27-338)
T2 construct: domain: first three Ig domains; expressed in Drosophila S2 cells, purified on Protein A sepharose; also called VEGFR-1-Fc fusion protein; not shown: Fc fragment from the Signal-pIgPlus vector
Method in brief: as §1

VEGFR-3-Fc = molecular target: T3, VEGFR-3-Fc (UniProt P35916 25-328)
T3 construct: domain: first three Ig domains; conditioned supernatant of 293T cells; also called VEGFR-3-Fc fusion protein; not shown: Fc fragment of the pIg vector
T3 sequence (looked up): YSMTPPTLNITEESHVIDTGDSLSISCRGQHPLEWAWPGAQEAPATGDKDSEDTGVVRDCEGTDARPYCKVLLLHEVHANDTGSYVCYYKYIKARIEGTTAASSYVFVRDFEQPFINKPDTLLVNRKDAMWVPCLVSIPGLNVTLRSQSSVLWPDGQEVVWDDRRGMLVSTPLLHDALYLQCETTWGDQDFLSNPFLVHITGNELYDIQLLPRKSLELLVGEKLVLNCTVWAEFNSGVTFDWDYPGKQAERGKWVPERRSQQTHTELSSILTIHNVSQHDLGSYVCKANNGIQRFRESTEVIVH
Method in brief: as §1

T2 sequence (P17948 27-338): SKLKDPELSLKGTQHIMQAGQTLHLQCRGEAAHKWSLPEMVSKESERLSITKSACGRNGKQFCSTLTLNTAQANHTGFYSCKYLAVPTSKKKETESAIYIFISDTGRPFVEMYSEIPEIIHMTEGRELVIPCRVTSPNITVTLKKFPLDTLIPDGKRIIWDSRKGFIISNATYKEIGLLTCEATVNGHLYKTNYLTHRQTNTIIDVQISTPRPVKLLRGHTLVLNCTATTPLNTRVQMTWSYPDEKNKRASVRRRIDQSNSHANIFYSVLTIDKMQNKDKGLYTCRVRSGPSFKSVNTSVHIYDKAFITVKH
T1 sequence (P35968 20-322): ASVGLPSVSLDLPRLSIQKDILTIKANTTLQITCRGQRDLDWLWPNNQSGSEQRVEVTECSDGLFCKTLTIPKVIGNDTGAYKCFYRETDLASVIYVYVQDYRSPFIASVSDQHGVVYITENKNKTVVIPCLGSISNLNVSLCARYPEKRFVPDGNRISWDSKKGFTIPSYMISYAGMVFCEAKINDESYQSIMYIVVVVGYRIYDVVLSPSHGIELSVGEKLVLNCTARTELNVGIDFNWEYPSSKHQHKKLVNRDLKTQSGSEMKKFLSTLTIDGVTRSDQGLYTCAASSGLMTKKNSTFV

B1: 61-13 (ligand)
chain: GQNHHEVVKFMDVYQRSYCHPREVCIDVGKEYPDEIEYIFKPSCVPLMRCGGCCNDEGLECVPTEESNITMQIMRITVPLSQGPKPVTISFANHTSCRCMSKLD
**Q.** What does the source list for B1?
**A.** binding result (VEGFR-2-Fc): no binding; binding result (VEGFR-1-Fc): no binding; binding result (VEGFR-3-Fc): no binding

B2: 13-13 (ligand)
chain: GQNHHEVVKFMDVYQRSYCHPIETLVDIFQEYPDEIEYIFKPPCVSVYRCGGCCNDEGLECVPTEESNITMQIMRITVPLSQGPKPVTISFANHTSCRCMSKLD
**Q.** Does B2 bind (VEGFR-2-Fc)?
**A.** no binding

**Q.** Does B2 bind (VEGFR-1-Fc)?
**A.** binds

**Q.** Does B2 bind (VEGFR-3-Fc)?
**A.** no binding

B3: 62-13 (ligand)
chain: GQNHHEVVKFMDVYQRSYCHPREVCIDVGKEFGVATNTFFKPPCVSVYRCGGCCNDEGLECVPTEESNITMQIMRITVPLSQGPKPVTISFANHTSCRCMSKLD
**Q.** Does B3 bind (VEGFR-2-Fc)?
**A.** binds

**Q.** Does B3 bind (VEGFR-1-Fc)?
**A.** no binding

**Q.** Does B3 bind (VEGFR-3-Fc)?
**A.** no binding

B4: 63-9 (ligand)
chain: GQNHHEVVKFMDVYQRSYCHPREVCIDVGKEYPDEIEYIFKPPCVSVYRCGGCCNDEGLECVPTEESNITMQIMRITVPLSQGPKPVTISFLQHNKCECRPKKD
**Q.** Does B4 bind (VEGFR-2-Fc)?
**A.** no binding

**Q.** Does B4 bind (VEGFR-1-Fc)?
**A.** no binding

**Q.** Does B4 bind (VEGFR-3-Fc)?
**A.** no binding

B5: 43-13 (ligand)
chain: AHYNTEILKFMDVYQRSYCHPREVCIDVGKEYPDEIEYIFKPPCVSVYRCGGCCNDEGLECVPTEESNITMQIMRITVPLSQGPKPVTISFANHTSCRCMSKLD
**Q.** What does the source list for B5?
**A.** binding result (VEGFR-2-Fc): no binding; binding result (VEGFR-1-Fc): no binding; binding result (VEGFR-3-Fc): no binding

B6: 71-11 (ligand)
chain: GQNHHEVVKSIDNEWRKTQCMPREVCIDVGKEYPDEIEYIFKPSCVPLMRCGGCCNSEGLQCVPTEESNITMQIMRITVPLSQGPKPVTISFLQHNKCECRPKKD
**Q.** Which results are given for B6?
**A.** binding result (VEGFR-2-Fc): no binding; binding result (VEGFR-1-Fc): no binding; binding result (VEGFR-3-Fc): no binding

B7: 74-11 (ligand)
chain: GQNHHEVVKSIDNEWRKTQCMPREVCIDVGKEFGVATNTFFKPSCVPLMRCGGCCNSEGLQCVPTEESNITMQIMRITVPLSQGPKPVTISFLQHNKCECRPKKD
**Q.** Which results are given for B7?
**A.** binding result (VEGFR-2-Fc): no binding; binding result (VEGFR-1-Fc): no binding; binding result (VEGFR-3-Fc): no binding

B8: 21-11 (ligand)
chain: AHYNTEILKSIDNEWRKTQCMPREVCIDVGKEYPDEIEYIFKPSCVPLMRCGGCCNSEGLQCVPTEESNITMQIMRITVPLSQGPKPVTISFLQHNKCECRPKKD
**Q.** Does B8 bind (VEGFR-2-Fc)?
**A.** no binding

**Q.** Does B8 bind (VEGFR-1-Fc)?
**A.** no binding

**Q.** Does B8 bind (VEGFR-3-Fc)?
**A.** no binding

B9: 31-3 (ligand)
chain: GQNHHEVVKSIDNEWRKTQCMPIETLVDIFQEYPDEIEYIFKPSCVPLMRCGGCCNDEGLECVPTEESNITMQIMRITVPLSQGPKPVTISFLQHNKCECRPKKD
**Q.** Which results are given for B9?
**A.** binding result (VEGFR-2-Fc): no binding; binding result (VEGFR-1-Fc): no binding; binding result (VEGFR-3-Fc): no binding

B10: 31-11 (ligand)
chain: GQNHHEVVKSIDNEWRKTQCMPIETLVDIFQEYPDEIEYIFKPSCVPLMRCGGCCNSEGLQCVPTEESNITMQIMRITVPLSQGPKPVTISFLQHNKCECRPKKD
**Q.** Does B10 bind (VEGFR-2-Fc)?
**A.** no binding

**Q.** Does B10 bind (VEGFR-1-Fc)?
**A.** no binding

**Q.** Does B10 bind (VEGFR-3-Fc)?
**A.** no binding

B11: 23-11 (ligand)
chain: AHYNTEILKSIDNEWRKTQCMPREVCIDVGKEYPDEIEYIFKPPCVSVYRCGGCCNSEGLQCVPTEESNITMQIMRITVPLSQGPKPVTISFLQHNKCECRPKKD
**Q.** Which results are given for B11?
**A.** binding result (VEGFR-2-Fc): no binding; binding result (VEGFR-1-Fc): no binding; binding result (VEGFR-3-Fc): no binding

B12: 73-15 (ligand)
chain: GQNHHEVVKSIDNEWRKTQCMPREVCIDVGKEYPDEIEYIFKPPCVSVYRCGGCCNSEGLQCVPTEESNITMQIMRITVPLSQGPKPVTISFANHTSCRCMSKLD
**Q.** Does B12 bind (VEGFR-2-Fc)?
**A.** binds

**Q.** Does B12 bind (VEGFR-1-Fc)?
**A.** no binding

**Q.** Does B12 bind (VEGFR-3-Fc)?
**A.** no binding

B13: 71-13 (ligand)
chain: GQNHHEVVKSIDNEWRKTQCMPREVCIDVGKEYPDEIEYIFKPSCVPLMRCGGCCNDEGLECVPTEESNITMQIMRITVPLSQGPKPVTISFANHTSCRCMSKLD
**Q.** Does B13 bind (VEGFR-2-Fc)?
**A.** no binding

**Q.** Does B13 bind (VEGFR-1-Fc)?
**A.** no binding

**Q.** Does B13 bind (VEGFR-3-Fc)?
**A.** no binding

B14: 33-11 (ligand)
chain: GQNHHEVVKSIDNEWRKTQCMPIETLVDIFQEYPDEIEYIFKPPCVSVYRCGGCCNSEGLQCVPTEESNITMQIMRITVPLSQGPKPVTISFLQHNKCECRPKKD
**Q.** Does B14 bind (VEGFR-2-Fc)?
**A.** no binding

**Q.** Does B14 bind (VEGFR-1-Fc)?
**A.** no binding

**Q.** Does B14 bind (VEGFR-3-Fc)?
**A.** no binding

B15: 71-15 (ligand)
chain: GQNHHEVVKSIDNEWRKTQCMPREVCIDVGKEYPDEIEYIFKPSCVPLMRCGGCCNSEGLQCVPTEESNITMQIMRITVPLSQGPKPVTISFANHTSCRCMSKLD
**Q.** Does B15 bind (VEGFR-2-Fc)?
**A.** no binding

**Q.** Does B15 bind (VEGFR-1-Fc)?
**A.** no binding

**Q.** Does B15 bind (VEGFR-3-Fc)?
**A.** no binding

B16: 63-1 (ligand)
chain: GQNHHEVVKFMDVYQRSYCHPREVCIDVGKEYPDEIEYIFKPPCVSVYRCGGCCNDEGLECVPTEESNITMQIMRIKPHQGQHIGEMSFLQHNKCECRPKKD
**Q.** Does B16 bind (VEGFR-2-Fc)?
**A.** binds

**Q.** Does B16 bind (VEGFR-1-Fc)?
**A.** binds

**Q.** Does B16 bind (VEGFR-3-Fc)?
**A.** no binding

B17: 62-11 (ligand)
chain: GQNHHEVVKFMDVYQRSYCHPREVCIDVGKEFGVATNTFFKPPCVSVYRCGGCCNSEGLQCVPTEESNITMQIMRITVPLSQGPKPVTISFLQHNKCECRPKKD
**Q.** Does B17 bind (VEGFR-2-Fc)?
**A.** binds

**Q.** Does B17 bind (VEGFR-1-Fc)?
**A.** no binding

**Q.** Does B17 bind (VEGFR-3-Fc)?
**A.** binds

B18: 73-7 (ligand)
chain: GQNHHEVVKSIDNEWRKTQCMPREVCIDVGKEYPDEIEYIFKPPCVSVYRCGGCCNSEGLQCVPTEESNITMQIMRIKPHQGQHIGEMSFANHTSCRCMSKLD
**Q.** Does B18 bind (VEGFR-2-Fc)?
**A.** binds

**Q.** Does B18 bind (VEGFR-1-Fc)?
**A.** no binding

**Q.** Does B18 bind (VEGFR-3-Fc)?
**A.** no binding

B19: 62-12 (ligand)
chain: GQNHHEVVKFMDVYQRSYCHPREVCIDVGKEFGVATNTFFKPPCVSVYRCGGCCNSEGLQCMNTSTSYLSKTLFEITVPLSQGPKPVTISFLQHNKCECRPKKD
**Q.** Does B19 bind (VEGFR-2-Fc)?
**A.** no binding

**Q.** Does B19 bind (VEGFR-1-Fc)?
**A.** no binding

**Q.** Does B19 bind (VEGFR-3-Fc)?
**A.** no binding

B20: 62-16 (ligand)
chain: GQNHHEVVKFMDVYQRSYCHPREVCIDVGKEFGVATNTFFKPPCVSVYRCGGCCNSEGLQCMNTSTSYLSKTLFEITVPLSQGPKPVTISFANHTSCRCMSKLD
**Q.** Does B20 bind (VEGFR-2-Fc)?
**A.** no binding

**Q.** Does B20 bind (VEGFR-1-Fc)?
**A.** no binding

**Q.** Does B20 bind (VEGFR-3-Fc)?
**A.** no binding

B21: 64-14 (ligand)
chain: GQNHHEVVKFMDVYQRSYCHPREVCIDVGKEFGVATNTFFKPSCVPLMRCGGCCNDEGLECMNTSTSYLSKTLFEITVPLSQGPKPVTISFANHTSCRCMSKLD
**Q.** What does the source list for B21?
**A.** binding result (VEGFR-2-Fc): no binding; binding result (VEGFR-1-Fc): no binding; binding result (VEGFR-3-Fc): no binding

B22: 64-10 (ligand)
chain: GQNHHEVVKFMDVYQRSYCHPREVCIDVGKEFGVATNTFFKPSCVPLMRCGGCCNDEGLECMNTSTSYLSKTLFEITVPLSQGPKPVTISFLQHNKCECRPKKD
**Q.** Which results are given for B22?
**A.** binding result (VEGFR-2-Fc): no binding; binding result (VEGFR-1-Fc): no binding; binding result (VEGFR-3-Fc): no binding

B23: 63-16 (ligand)
chain: GQNHHEVVKFMDVYQRSYCHPREVCIDVGKEYPDEIEYIFKPPCVSVYRCGGCCNSEGLQCMNTSTSYLSKTLFEITVPLSQGPKPVTISFANHTSCRCMSKLD
**Q.** Does B23 bind (VEGFR-2-Fc)?
**A.** no binding

**Q.** Does B23 bind (VEGFR-1-Fc)?
**A.** no binding

**Q.** Does B23 bind (VEGFR-3-Fc)?
**A.** no binding

B24: 64-16 (ligand)
chain: GQNHHEVVKFMDVYQRSYCHPREVCIDVGKEFGVATNTFFKPSCVPLMRCGGCCNSEGLQCMNTSTSYLSKTLFEITVPLSQGPKPVTISFANHTSCRCMSKLD
**Q.** Does B24 bind (VEGFR-2-Fc)?
**A.** no binding

**Q.** Does B24 bind (VEGFR-1-Fc)?
**A.** no binding

**Q.** Does B24 bind (VEGFR-3-Fc)?
**A.** no binding

B25: 63-14 (ligand)
chain: GQNHHEVVKFMDVYQRSYCHPREVCIDVGKEYPDEIEYIFKPPCVSVYRCGGCCNDEGLECMNTSTSYLSKTLFEITVPLSQGPKPVTISFANHTSCRCMSKLD
**Q.** Which results are given for B25?
**A.** binding result (VEGFR-2-Fc): no binding; binding result (VEGFR-1-Fc): no binding; binding result (VEGFR-3-Fc): no binding
